For one assay, the target named is T1, P5bH1.
T1 chain: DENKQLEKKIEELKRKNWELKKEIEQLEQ
The assay is described as follows: two-hybrid library CCNG1.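 Note: natural log of median RNA to DNA barcode read ratio; higher means stronger binding.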

The target of another assay is T2, P1bH1.
T2 chain: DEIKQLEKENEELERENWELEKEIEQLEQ
Briefly: two-hybrid library CCNG1.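 Note: natural log of median RNA to DNA barcode read ratio; higher means stronger binding.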

The target of the next assay is T3, P6bH1.
T3 chain: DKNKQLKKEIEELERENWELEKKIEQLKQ
The assay is described as follows: two-hybrid library CCNG1.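 Note: natural log of median RNA to DNA barcode read ratio; higher means stronger binding.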

A further assay deals with T4, P4bH1.
T4 chain: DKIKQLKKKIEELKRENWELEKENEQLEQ
Briefly: two-hybrid library CCNG1.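 Note: natural log of median RNA to DNA barcode read ratio; higher means stronger binding.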

For another assay, the target named is T5, P2bH1.
T5 chain: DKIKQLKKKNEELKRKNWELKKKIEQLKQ
Briefly: two-hybrid library CCNG1.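 Note: natural log of median RNA to DNA barcode read ratio; higher means stronger binding.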

A further assay has as its target T6, P3bH1.
T6 chain: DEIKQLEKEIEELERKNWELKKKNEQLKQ
The assay is described as follows: two-hybrid library CCNG1.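 Note: natural log of median RNA to DNA barcode read ratio; higher means stronger binding.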

The next assay deals with T7, P12bH1.
T7 chain: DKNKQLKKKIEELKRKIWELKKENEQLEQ
The assay is described as follows: two-hybrid library CCNG1.

Another assay has as its target T8, P9bH1.
T8 chain: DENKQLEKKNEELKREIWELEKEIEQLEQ
Briefly: two-hybrid library CCNG1.

The next assay deals with T9, P8bH1.
T9 chain: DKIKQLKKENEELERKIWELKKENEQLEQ
The assay is described as follows: two-hybrid library CCNG1.

Another assay deals with T10, P7bH1.
T10 chain: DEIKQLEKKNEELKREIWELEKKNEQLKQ
Briefly: two-hybrid library CCNG1.

For another assay, the target named is T11, 4H1899-bA.
T11 chain: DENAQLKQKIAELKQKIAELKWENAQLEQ
Briefly: two-hybrid library CCNG1.

The next assay deals with T12, 4H3462-bA.
T12 chain: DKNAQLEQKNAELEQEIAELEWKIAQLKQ
The assay is described as follows: two-hybrid library CCNG1.

The next assay addresses T13, 4H3497-bA.
T13 chain: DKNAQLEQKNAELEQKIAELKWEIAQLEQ
The assay is described as follows: two-hybrid library CCNG1.

For another assay, the target named is T14, 4H338-bH.
T14 chain: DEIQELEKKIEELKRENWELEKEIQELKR
The assay is described as follows: two-hybrid library CCNG1.

In the next assay the target is T15, 4H3817-bA.
T15 chain: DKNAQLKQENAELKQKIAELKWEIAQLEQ
The assay is described as follows: two-hybrid library CCNG1.

The target in a further assay is T16, 4H3628-bA.
T16 chain: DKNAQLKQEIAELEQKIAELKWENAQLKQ
Briefly: two-hybrid library CCNG1.

The target of a further assay is T17, 4H906-bA.
T17 chain: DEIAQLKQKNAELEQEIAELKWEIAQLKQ
Briefly: two-hybrid library CCNG1.

In another assay the target is T18, 4H3162-bA.
T18 chain: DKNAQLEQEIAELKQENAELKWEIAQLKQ
Briefly: two-hybrid library CCNG1.

In the next assay the target is T19, 4H3613-bA.
T19 chain: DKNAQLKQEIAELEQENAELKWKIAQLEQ
Briefly: two-hybrid library CCNG1.

The target of a further assay is T20, 4H3926-bA.
T20 chain: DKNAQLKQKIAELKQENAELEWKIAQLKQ
The assay is described as follows: two-hybrid library CCNG1.

The target of the next assay is T21, 4H1544-bA.
T21 chain: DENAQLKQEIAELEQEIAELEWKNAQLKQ
The assay is described as follows: two-hybrid library CCNG1.

The target in a further assay is T22, 4H570-bA.
T22 chain: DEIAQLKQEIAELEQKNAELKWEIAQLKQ
Briefly: two-hybrid library CCNG1.

The target in the next assay is T23, 4H1710-bA.
T23 chain: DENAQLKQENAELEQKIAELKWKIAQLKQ
The assay is described as follows: two-hybrid library CCNG1.

Another assay concerns the target T24, 4H850-bA.
T24 chain: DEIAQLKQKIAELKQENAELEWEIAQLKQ
The assay is described as follows: two-hybrid library CCNG1.

A further assay has as its target T25, 4H1449-bA.
T25 chain: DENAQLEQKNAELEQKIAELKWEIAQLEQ
The assay is described as follows: two-hybrid library CCNG1.

The next assay has as its target T26, 4H1985-bA.
T26 chain: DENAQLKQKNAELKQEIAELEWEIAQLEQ
Briefly: two-hybrid library CCNG1.

Another assay addresses T27, 4H3298-bA.
T27 chain: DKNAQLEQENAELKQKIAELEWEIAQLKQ
Briefly: two-hybrid library CCNG1.

The target in another assay is T28, 4H591-bA.
T28 chain: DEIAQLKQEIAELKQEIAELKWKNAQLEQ
The assay is described as follows: two-hybrid library CCNG1.

In the next assay the target is T29, 4H3858-bA.
T29 chain: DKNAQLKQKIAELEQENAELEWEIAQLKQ
The assay is described as follows: two-hybrid library CCNG1.

Another assay has as its target T30, 4H3974-bA.
T30 chain: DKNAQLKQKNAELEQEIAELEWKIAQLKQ
The assay is described as follows: two-hybrid library CCNG1.

The next assay concerns the target T31, 4H3277-bA.
T31 chain: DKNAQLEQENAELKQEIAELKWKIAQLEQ
The assay is described as follows: two-hybrid library CCNG1.

A further assay concerns the target T32, 4H3638-bA.
T32 chain: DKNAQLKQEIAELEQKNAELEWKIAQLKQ
Briefly: two-hybrid library CCNG1.

In the next assay the target is T33, 4H1373-bA.
T33 chain: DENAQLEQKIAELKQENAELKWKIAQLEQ
Briefly: two-hybrid library CCNG1.

Another assay addresses T34, 4H3175-bA.
T34 chain: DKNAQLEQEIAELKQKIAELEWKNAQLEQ
Briefly: two-hybrid library CCNG1.

The target of the next assay is T35, 4H626-bA.
T35 chain: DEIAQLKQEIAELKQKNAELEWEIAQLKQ
Briefly: two-hybrid library CCNG1.

The target in the next assay is T36, 4H1348-bA.
T36 chain: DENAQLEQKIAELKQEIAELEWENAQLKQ
Briefly: two-hybrid library CCNG1.

The target in the next assay is T37, O6-AA.
T37 chain: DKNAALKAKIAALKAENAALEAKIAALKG
The assay is described as follows: two-hybrid library CCmax. The settings on record: mean of both orientations.

The next assay has as its target T38, O14-AA.
T38 chain: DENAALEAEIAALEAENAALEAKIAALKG
Briefly: two-hybrid library CCmax. The settings on record: mean of both orientations.

The target of another assay is T39, P9-AA.
T39 chain: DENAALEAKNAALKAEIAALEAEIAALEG
Briefly: two-hybrid library CCmax. To be noted: mean of both orientations.

A further assay has as its target T40, O4-AA.
T40 chain: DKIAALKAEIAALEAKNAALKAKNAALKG
Briefly: two-hybrid library CCmax. To be noted: mean of both orientations.

The target of a further assay is T41, O5-AA.
T41 chain: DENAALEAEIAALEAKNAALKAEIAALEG
Briefly: two-hybrid library CCmax.

The target of a further assay is T42, P10-AA.
T42 chain: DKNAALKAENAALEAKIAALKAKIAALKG
Briefly: two-hybrid library CCmax. To be noted: mean of both orientations.

A further assay has as its target T43, O8-AA.
T43 chain: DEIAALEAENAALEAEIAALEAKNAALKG
The assay is described as follows: two-hybrid library CCmax. To be noted: mean of both orientations.

The target in a further assay is T44, O11-AA.
T44 chain: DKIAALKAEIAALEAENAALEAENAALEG
Briefly: two-hybrid library CCmax.

The target in another assay is T45, O13-AA.
T45 chain: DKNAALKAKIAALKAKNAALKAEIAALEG
Briefly: two-hybrid library CCmax. To be noted: mean of both orientations.

A further assay deals with T46, O2-AA.
T46 chain: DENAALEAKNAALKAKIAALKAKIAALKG
The assay is described as follows: two-hybrid library CCmax. The settings on record: mean of both orientations.

Another assay concerns the target T47, O1-AA.
T47 chain: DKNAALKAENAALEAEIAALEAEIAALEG
Briefly: two-hybrid library CCmax.

The target in the next assay is T48, O3-AA.
T48 chain: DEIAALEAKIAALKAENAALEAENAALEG
Briefly: two-hybrid library CCmax. The settings on record: mean of both orientations.

The next assay deals with T49, O7-AA.
T49 chain: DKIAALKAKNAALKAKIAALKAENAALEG
Briefly: two-hybrid library CCmax. The settings on record: mean of both orientations.

The values below come from PMC10397247.

DKNKQLKKKIEELKRKIWELKKENEQLEQ [P12bH1]: the interaction score is -0.826 in the assay with P5bH1; -0.0192 in the assay with P1bH1; -0.251 with P6bH1; -0.999 with P4bH1; -1.01 with P2bH1; -1.43 with P3bH1. For the same molecule, the interaction score was -1.4 in the assay with P12bH1, -0.294 with P9bH1, -0.578 with P8bH1 and -0.861 in the assay with P7bH1.

Regarding DENAQLEQKIAELKQEIAELEWENAQLKQ [4H1348-bA], the interaction score was 1.63 in the assay with 4H1899-bA; 0.657 with 4H3462-bA; -0.616 with 4H3497-bA; 1.22 with 4H338-bH; -0.318 with 4H3817-bA; 1.84 with 4H3628-bA. Besides, the interaction score in the assay with 4H906-bA was -0.721; with 4H3162-bA, -0.332; with 4H3613-bA it was -1.05; with 4H3926-bA, -0.392; with 4H1544-bA, -0.0997; with 4H570-bA, -0.301. Further, the interaction score with 4H1710-bA is 0.798; with 4H850-bA it was -0.292; with 4H1449-bA, -0.151; with 4H1985-bA it was -0.366; with 4H3298-bA, -0.624; with 4H591-bA it was -1.02. In addition, the interaction score with 4H3858-bA is -0.895; with 4H3974-bA it was 0.469; with 4H3277-bA it was -0.24; with 4H3638-bA, -0.0281; with 4H1373-bA, -0.7; in the assay with 4H3175-bA, 0.0318. Moreover, the interaction score was -0.434 with 4H626-bA and 0.78 with 4H1348-bA.

On to DKNAALKAENAALEAEIAALEAEIAALEG [O1-AA], for which the interaction score with O6-AA is -1.79; in the assay with O14-AA it was -1.66; with P9-AA, -0.278; in the assay with O4-AA it was -1.07; with O5-AA it was -1.72; with P10-AA it was 1.05. The interaction score in the assay with O8-AA was -1.41; with O11-AA it was -1.61; with O13-AA, 0.0154; with O2-AA, 2.13; in the assay with O1-AA, -2.06; in the assay with O3-AA, -1.57. The interaction score in the assay with O7-AA is -0.639.
